Patent US20140271478A1 (University of California, published 2014)
Changes are numbered by the printed parent chain.

T1: mouse integrin β8 (mouse, UniProt Q0VBD0 22-767)
T1 construct: whole, on cells; also called mouse β8; itgb8
T1 sequence (looked up): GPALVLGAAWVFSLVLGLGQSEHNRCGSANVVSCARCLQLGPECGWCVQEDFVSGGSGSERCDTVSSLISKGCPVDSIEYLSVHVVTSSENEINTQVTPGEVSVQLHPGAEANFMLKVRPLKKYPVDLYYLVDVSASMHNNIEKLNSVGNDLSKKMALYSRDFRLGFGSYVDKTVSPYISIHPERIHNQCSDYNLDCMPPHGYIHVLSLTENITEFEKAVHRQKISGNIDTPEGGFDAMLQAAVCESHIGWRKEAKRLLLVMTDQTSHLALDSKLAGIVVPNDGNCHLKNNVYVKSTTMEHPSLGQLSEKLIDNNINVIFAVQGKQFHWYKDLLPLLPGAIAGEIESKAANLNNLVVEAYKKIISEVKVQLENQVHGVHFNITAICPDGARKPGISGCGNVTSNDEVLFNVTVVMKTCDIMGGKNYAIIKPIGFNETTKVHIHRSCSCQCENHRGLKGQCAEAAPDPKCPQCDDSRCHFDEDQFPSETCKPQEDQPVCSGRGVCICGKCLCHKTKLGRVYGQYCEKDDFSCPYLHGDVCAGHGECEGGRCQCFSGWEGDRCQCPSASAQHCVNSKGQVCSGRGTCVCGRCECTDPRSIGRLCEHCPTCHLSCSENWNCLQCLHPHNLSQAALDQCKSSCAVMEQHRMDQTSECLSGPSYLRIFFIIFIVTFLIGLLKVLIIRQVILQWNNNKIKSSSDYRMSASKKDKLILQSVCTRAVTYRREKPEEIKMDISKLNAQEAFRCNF

T2: human integrin β8 swap construct KKMALF (SEQ ID NO:132) (human, UniProt P26012 43-769)
T2 sequence: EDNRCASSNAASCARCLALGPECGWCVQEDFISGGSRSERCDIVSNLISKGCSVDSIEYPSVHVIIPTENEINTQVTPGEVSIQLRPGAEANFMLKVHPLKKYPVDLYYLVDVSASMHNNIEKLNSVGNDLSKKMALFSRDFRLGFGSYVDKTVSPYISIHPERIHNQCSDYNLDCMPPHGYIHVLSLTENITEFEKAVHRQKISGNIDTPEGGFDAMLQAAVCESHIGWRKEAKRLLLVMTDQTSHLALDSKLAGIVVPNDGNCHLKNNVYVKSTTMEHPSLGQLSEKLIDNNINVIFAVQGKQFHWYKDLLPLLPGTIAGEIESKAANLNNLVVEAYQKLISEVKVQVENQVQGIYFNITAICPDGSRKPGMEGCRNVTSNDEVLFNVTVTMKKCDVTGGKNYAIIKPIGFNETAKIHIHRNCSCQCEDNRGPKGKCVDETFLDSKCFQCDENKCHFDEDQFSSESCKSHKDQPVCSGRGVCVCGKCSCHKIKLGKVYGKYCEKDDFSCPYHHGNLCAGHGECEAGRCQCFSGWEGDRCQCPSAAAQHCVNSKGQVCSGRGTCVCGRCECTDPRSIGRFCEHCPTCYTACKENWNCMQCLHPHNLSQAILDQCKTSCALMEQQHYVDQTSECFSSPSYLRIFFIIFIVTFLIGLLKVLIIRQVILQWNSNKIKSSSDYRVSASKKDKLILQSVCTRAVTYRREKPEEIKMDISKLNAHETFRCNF

T3: human integrin β8 swap construct RKMALF (SEQ ID NO:134) (human, UniProt P26012 43-769)
T3 sequence: T2 sequence with K133R

B1: 37E1B5 antibody (antibody, V domains shown)
VH: EVQLVESGGGLVQPGGSLNLSCAVSGFVFSRYWMSWVRQAPGKGLEWIGEINPDSSTINYTSSLKDKFIISRDNAKNTLYLQMNKVRSEDTALYYCACLITTEDYWGQGTSVTVSS
VL: QIVLTQSPSSMYASLGERVTIPCKASQDINSYLSWFQQKPGKSPKTLIYYANRLVDGVPSRFSGSGSGQDYSLTISSLEYEDMGIYYCLQYDEFPYTFGGGTKLEIK
B2: 14E5 antibody (antibody, V domains shown)
VH: EVQLQQSGAELMKPGASVKISCKATGYTFSTYWIEWIKQRPGHGLEWIGHILPGSVITNYNEKFKGKAAITADTSSNTSYMQLSSLTSEDSAVYYCARWGWDSYWGQGTLVTVSS
VL: DIEMTQSPSSLSASLGDRVTISCSTSQDISSSLNWYQQKPDGTVTLLIYYTSNLHSGVPSRFSGSGSGTDYSLTISNLEPEDIATYYCQQYSKLPYTFGGGTKLEIKR
notes: Mouse hybridoma antibody; also called hybridoma clone 14E5
B3: 11E8 antibody (antibody, V domains shown)
VH: EVQLQQSGPELMKTGASVKISCKATGYTFSSYWIEWVKQRPGHGLEWIGDILPGSGTTNYNEKFKGRATVTADRSSNTAYMQLSSLTYGDSAVYYCATWGWDTYWDQGTSVTVSS
VL: B2 VL with E3V, T25A, D28G, S31N, S32Y, T45K, N53S, K93N
notes: Mouse hybridoma antibody

Target: T1, mouse integrin β8
Experiment: cell staining of β8 amino acid swap constructs (175-180)

% positive [%]	Binder
0	B1
0	B2
0	B3

Target: T4, human integrin αβ8 (αvβ8) expressed on cells (human, UniProt P06756 31-1048)
T4 construct: whole, on cells; β8 transfected into or endogenous on cells, unfixed or formalin fixed; also called human integrin β8; ITGB8
Experiment: as above

T4 sequence (P06756 31-1048): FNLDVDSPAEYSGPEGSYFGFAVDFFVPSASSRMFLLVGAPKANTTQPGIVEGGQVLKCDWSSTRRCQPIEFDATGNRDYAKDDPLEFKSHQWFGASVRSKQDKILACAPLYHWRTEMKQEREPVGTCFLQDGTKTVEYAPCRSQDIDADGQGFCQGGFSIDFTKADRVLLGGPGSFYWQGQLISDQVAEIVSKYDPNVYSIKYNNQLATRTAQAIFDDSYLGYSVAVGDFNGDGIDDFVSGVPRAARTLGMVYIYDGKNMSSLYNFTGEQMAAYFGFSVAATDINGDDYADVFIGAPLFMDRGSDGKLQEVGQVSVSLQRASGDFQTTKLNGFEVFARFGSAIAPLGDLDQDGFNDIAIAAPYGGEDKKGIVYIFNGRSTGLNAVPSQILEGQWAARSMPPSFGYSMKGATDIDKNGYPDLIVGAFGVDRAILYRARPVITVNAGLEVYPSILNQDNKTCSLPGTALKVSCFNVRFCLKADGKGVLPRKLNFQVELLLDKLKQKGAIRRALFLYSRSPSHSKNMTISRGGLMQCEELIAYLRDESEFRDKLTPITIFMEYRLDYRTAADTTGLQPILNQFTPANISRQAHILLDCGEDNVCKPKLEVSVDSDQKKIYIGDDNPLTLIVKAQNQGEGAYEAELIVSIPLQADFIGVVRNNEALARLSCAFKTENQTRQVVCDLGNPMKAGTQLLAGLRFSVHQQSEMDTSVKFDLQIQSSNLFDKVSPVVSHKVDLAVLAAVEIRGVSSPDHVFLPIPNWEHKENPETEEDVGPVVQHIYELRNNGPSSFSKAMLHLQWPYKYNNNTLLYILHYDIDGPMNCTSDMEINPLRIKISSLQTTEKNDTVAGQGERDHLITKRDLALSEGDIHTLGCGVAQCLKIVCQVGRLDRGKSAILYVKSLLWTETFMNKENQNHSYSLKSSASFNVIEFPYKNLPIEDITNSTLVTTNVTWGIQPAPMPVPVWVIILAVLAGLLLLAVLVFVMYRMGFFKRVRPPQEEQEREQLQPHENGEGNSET

% positive [%]	Binder
108	B1
112	B2
97	B3

Target: T2, human integrin β8 swap construct KKMALF …
Experiment: as above

% positive [%]	Binder
31	B1
1	B2
3	B3

Target: T3, human integrin β8 swap construct RKMALF …
Experiment: as above

% positive [%]	Binder
131	B1
150	B2
125	B3
